US20090233868A1, “Small antiviral peptides against hepatitis C virus” (priority 2005, published 2009)

Legend:
nonspecific RNA = assay: Filter binding assay with nonspecific RNA probe; conditions: control probe, same filter-binding assay
[1] = test system: HCV IRES mediated translation; assay: In vitro translation of uncapped HCV-IRES-Luc monocistronic RNA in rabbit reticulocyte lysate; type: biochemical, hepatitis C virus; conditions: 25 ng and 50 ng protein; data not shown

B1: wt-La: purified recombinant full-length wildtype human La protein (p52) (protein, UniProt P05455 1-408, looked up)
chain: MAENGDNEKMAALEAKICHQIEYYFGDFNLPRDKFLKEQIKLDEGWVPLEIMIKFNRLNRLTTDFNVIVEALSKSKAELMEISEDKTKIRRSPSKPLPEVTDEYKNDVKNRSVYIKGFPTDATLDDIKEWLEDKGQVLNIQMRRTLHKAFKGSIFVVFDSIESAKKFVETPGQKYKETDLLILFKDDYFAKKNEERKQNKVEAKLRAKQEQEAKQKLEEDAEMKSLEEKIGCLLKFSGDLDDQTCREDLHILFSNHGEIKWIDFVRGAKEGIILFKEKAKEALGKAKDANNGNLQLRNKEVTWEVLEGEVEKEALKKIIEDQQESLNKWKSKGRRFKGKGKGNKAAQPGSGKGKVQFQGKKTKFASDDEHDEHDENGATGPVKRAREETDKEEPASKQQKTENGAGDQ
modifications: full-length
- Binding of non-specific RNA probe (filter binding) (nonspecific RNA): did not show considerable binding
- Stimulation of HCV IRES mediated translation in absence of peptide [1]: dose dependent stimulation
